This note sets out measurements from the supplement of paper PMC5998384.

For data set [1], the system named is HeLa Kyoto. Nature of the data set: melting temperature (median over replicates), in situ; higher = more thermally stable.
Data set [2] deals with HeLa Kyoto. Nature of the data set: thermal stability score vs G1/S (z-score of summed log2 fold changes over temperatures); higher = more thermally stable than in G1/S.
Data set [3] deals with HeLa Kyoto. Kind of data set: solubility change mitosis vs G1/S (difference of NP-40 vs SDS log2 ratios) (log2 ratio difference); higher = more soluble in mitosis.
For data set [4], the system named is HeLa Kyoto. Kind of data set: solubility in G1/S (NP-40 vs SDS abundance) (log2 ratio); higher = more soluble. The note with it: cell cycle stage: G1/S.
Setting [5] is: cell cycle stage: early G1 (4.5 h after nocodazole release).
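Throughout, for melting temperature (median over replicates), in situ: HeLa Kyoto cells synchronized by double thymidine or nocodazole block, proteins quantified by TMT10plex mass spectrometry, three independent biological replicates.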
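Throughout, for solubility change mitosis vs G1/S (difference of NP-40 vs SDS log2 ratios): synchronized HeLa Kyoto cells (double thymidine block for G1/S, nocodazole release for mitosis), protein amounts in NP-40 versus SDS lysates quantified by mass spectrometry, three biological replicates.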
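Throughout, for solubility in G1/S (NP-40 vs SDS abundance): HeLa Kyoto cells arrested at G1/S by double thymidine block, proteins quantified by TMT10plex mass spectrometry in mild NP-40 versus SDS extracts, three biological replicates.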
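Throughout, for thermal stability score vs G1/S (z-score of summed log2 fold changes over temperatures): synchronized HeLa Kyoto cells, proteins quantified by TMT10plex mass spectrometry, three biological replicates, mitosis taken 0.5 h after nocodazole release, G1/S directly after double thymidine block.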

On to “MTTDEGAKNNEESPTATVAEQGEDITSKKDRGVLKIVKRVGNGEETPMIGDKVYVHYKGKLSNGKKFDSSHDRNEPFVFSLGKGQVIKAWDIGVATMKKGEICHLLCKPEYAYGSAGSLPKIPSNATLFFEIELLDFKGEDLFEDGGIIRRTKRKGEGYSNPNEGATVEIHLEGRCGGRMFDCRDVAFTVGEGEDHDIPIGIDKALEKMQREEQCILYLGPRYGFGEAGKPKFGIEPNAELIYEVTLKSFEKAKESWEMDTKEKLEQAAIVKEKGTVYFKGGKYMQAVIQYGKIVSWLEMEYGLSEKESKASESFLLAAFLNLAMCYLKLREYTKAVECCDKALGLDSANEKGLYRRGEAQLLMNEFESAKGDFEKVLEVNPQNKAARLQISMCQKKAKEHNERDRRIYANMFKKFAEQDAKEEANKAMGKKTSEGVTNEKGTDSQAMEEEKPEGHV [FKBP5]”, for which the melting temperature was 46.7 °C in the data set with HeLa Kyoto [1] (cell cycle stage: G1/S) and 48.6 °C in the data set on HeLa Kyoto [1] (cell cycle stage: mitosis). Further, the thermal stability score in the data set on HeLa Kyoto [2] (setting [5]) came out at 2.48; with HeLa Kyoto [2] (cell cycle stage: mitosis) it was 4.23. Further, the “solubility change mitosis (log2)” value in the data set with HeLa Kyoto [3] was -0.124. For the same sequence, the “solubility in G1/S (log2)” value in the data set on HeLa Kyoto [4] came to 0.0823.

Take “MTTFGAVAEWRLPSLRRATLWIPQWFAKKAIFNSPLEAAMAFPHLQQPSFLLASLKADSINKPFAQQCQDLVKVIEDFPAKELHTIFPWLVESIFGSLDGVLVGWNLRCLQGRVNPVEYSIVMEFLDPGGPMMKLVYKLQAEDYKFDFPVSYLPGPVKASIQECILPDSPLYHNKVQFTPTGGLGLNLALNPFEYYIFFFALSLITQKPLPVSLHVRTSDCAYFILVDRYLSWFLPTEGSVPPPLSSSPGGTSPSPPPRTPAIPFASYGLHHTSLLKRHISHQTSVNADPASHEIWRSETLLQVFVEMWLHHYSLEMYQKMQSPHAKLEVLHYRLSVSSALYSPAQPSLQALHAYQESFTPTEEHVLVVRLLLKHLHAFANSLKPEQASPSAHSHATSPLEEFKRAAVPRFVQQKLYLFLQHCFGHWPLDASFRAVLEMWLSYLQPWRYAPDKQAPGSDSQPRCVSEKWAPFVQENLLMYTKLFVGFLNRALRTDLVSPKHALMVFRVAKVFAQPNLAEMIQKGEQLFLEPELVIPHRQHRLFTAPTFTGSFLSPWPPAVTDASFKVKSHVYSLEGQDCKYTPMFGPEARTLVLRLAQLITQAKHTAKSISDQCAESPAGHSFLSWLGFSSMDTNGSYTANDLDEMGQDSVRKTDEYLEKALEYLRQIFRLSEAQLRQFTLALGTTQDENGKKQLPDCIVGEDGLILTPLGRYQIINGLRRFEIEYQGDPELQPIRSYEIASLVRTLFRLSSAINHRFAGQMAALCSRDDFLGSFCRYHLTEPGLASRHLLSPVGRRQVAGHTRGPRLSLRFLGSYRTLVSLLLAFFVASLFCVGPLPCTLLLTLGYVLYASAMTLLTERGKLHQP [SMPD4]”: the melting temperature in the data set on HeLa Kyoto [1] (cell cycle stage: G1/S) was 51.7 °C; with HeLa Kyoto [1] (cell cycle stage: mitosis) it was 50.2 °C. Further, the thermal stability score in the data set with HeLa Kyoto [2] (setting [5]) was -0.683; with HeLa Kyoto [2] (cell cycle stage: mitosis) it was -0.99. Moreover, in the data set on HeLa Kyoto [3], the “solubility change mitosis (log2)” value was determined as 0.185. For the same sequence, the “solubility in G1/S (log2)” value in the data set with HeLa Kyoto [4] was -0.601.

Consider “MTTLDDKLLGEKLQYYYSSSEDEDSDHEDKDRGRCAPASSSVPAEAELAGEGISVNTGPKGVINDWRRFKQLETEQREEQCREMERLIKKLSMTCRSHLDEEEEQQKQKDLQEKISGKMTLKEFAIMNEDQDDEEFLQQYRKQRMEEMRQQLHKGPQFKQVFEISSGEGFLDMIDKEQKSIVIMVHIYEDGIPGTEAMNGCMICLAAEYPAVKFCKVKSSVIGASSQFTRNALPALLIYKGGELIGNFVRVTDQLGDDFFAVDLEAFLQEFGLLPEKEVLVLTSVRNSATCHSEDSDLEID [PDCL]”, for which, in the data set on HeLa Kyoto [1] (cell cycle stage: mitosis), the melting temperature was determined as 51.5 °C. The results for the thermal stability score in the data set with HeLa Kyoto [2] (setting [5]) and with HeLa Kyoto [2] (cell cycle stage: mitosis) were 0.206 and -0.546, respectively. Moreover, the “solubility change mitosis (log2)” value with HeLa Kyoto [3] is 0.0999. Further, the “solubility in G1/S (log2)” value with HeLa Kyoto [4] was -0.0669.

“MTTPANAQNASKTWELSLYELHRTPQEAIMDGTEIAVSPRSLHSELMCPICLDMLKNTMTTKECLHRFCSDCIVTALRSGNKECPTCRKKLVSKRSLRPDPNFDALISKIYPSREEYEAHQDRVLIRLSRLHNQQALSSSIEEGLRMQAMHRAQRVRRPIPGSDQTTTMSGGEGEPGEGEGDGEDVSSDSAPDSAPGPAPKRPRGGGAGGSSVGTGGGGTGGVGGGAGSEDSGDRGGTLGGGTLGPPSPPGAPSPPEPGGEIELVFRPHPLLVEKGEYCQTRYVKTTGNATVDHLSKYLALRIALERRQQQEAGEPGGPGGGASDTGGPDGCGGEGGGAGGGDGPEEPALPSLEGVSEKQYTIYIAPGGGAFTTLNGSLTLELVNEKFWKVSRPLELCYAPTKDPK [RING1]” showed a melting temperature in the data set on HeLa Kyoto [1] (cell cycle stage: mitosis) of 50 °C. The thermal stability score in the data set on HeLa Kyoto [2] (setting [5]) came to 0.769; in the data set on HeLa Kyoto [2] (cell cycle stage: mitosis), 1.05. Further, the “solubility change mitosis (log2)” value with HeLa Kyoto [3] is 0.222. Besides, the “solubility in G1/S (log2)” value in the data set with HeLa Kyoto [4] was -0.00962.

Consider “MTTSGALFPSLVPGSRGASNKYLVEFRAGKMSLKGTTVTPDKRKGLVYIQQTDDSLIHFCWKDRTSGNVEDDLIIFPDDCEFKRVPQCPSGRVYVLKFKAGSKRLFFWMQEPKTDQDEEHCRKVNEYLNNPPMPGALGASGSSGHELSALGGEGGLQSLLGNMSHSQLMQLIGPAGLGGLGGLGALTGPGLASLLGSSGPPGSSSSSSSRSQSAAVTPSSTTSSTRATPAPSAPAAASATSPSPAPSSGNGASTAASPTQPIQLSDLQSILATMNVPAGPAGGQQVDLASVLTPEIMAPILANADVQERLLPYLPSGESLPQTADEIQNTLTSPQFQQALGMFSAALASGQLGPLMCQFGLPAEAVEAANKGDVEAFAKAMQNNAKPEQKEGDTKDKKDEEEDMSLD [ADRM1]”, for which the results for the melting temperature in the data set on HeLa Kyoto [1] (cell cycle stage: G1/S) and in the data set with HeLa Kyoto [1] (cell cycle stage: mitosis) were 51.3 °C and 51.1 °C, respectively. The thermal stability score in the data set on HeLa Kyoto [2] (setting [5]) was 0.363; with HeLa Kyoto [2] (cell cycle stage: mitosis) it was -2.12. The “solubility change mitosis (log2)” value in the data set on HeLa Kyoto [3] is -0.24. Besides, in the data set on HeLa Kyoto [4], the “solubility in G1/S (log2)” value turned out to be 0.469.

For the sequence “MTTSHMNGHVTEESDSEVKNVDLASPEEHQKHREMAVDCPGDLGTRMMPIRRSAQLERIRQQQEDMRRRREEEGKKQELDLNSSMRLKKLAQIPPKTGIDNPMFDTEEGIVLESPHYAVKILEIEDLFSSLKHIQHTLVDSQSQEDISLLLQLVQNKDFQNAFKIHNAITVHMNKASPPFPLISNAQDLAQEVQTVLKPVHHKEGQELTALLNTPHIQALLLAHDKVAEQEMQLEPITDERVYESIGQYGGETVKIVRIEKARDIPLGATVRNEMDSVIISRIVKGGAAEKSGLLHEGDEVLEINGIEIRGKDVNEVFDLLSDMHGTLTFVLIPSQQIKPPPAKETVIHVKAHFDYDPSDDPYVPCRELGLSFQKGDILHVISQEDPNWWQAYREGDEDNQPLAGLVPGKSFQQQREAMKQTIEEDKEPEKSGKLWCAKKNKKKRKKVLYNANKNDDYDNEEILTYEEMSLYHQPANRKRPIILIGPQNCGQNELRQRLMNKEKDRFASAVPHTTRSRRDQEVAGRDYHFVSRQAFEADIAAGKFIEHGEFEKNLYGTSIDSVRQVINSGKICLLSLRTQSLKTLRNSDLKPYIIFIAPPSQERLRALLAKEGKNPKPEELREIIEKTREMEQNNGHYFDTAIVNSDLDKAYQELLRLINKLDTEPQWVPSTWLR [MPP5]”, the results for the melting temperature in the data set on HeLa Kyoto [1] (cell cycle stage: G1/S) and in the data set with HeLa Kyoto [1] (cell cycle stage: mitosis) were 48 °C and 50.7 °C, respectively. For the same sequence, the thermal stability score stood at 0.62 with HeLa Kyoto [2] (setting [5]) and 2.56 in the data set with HeLa Kyoto [2] (cell cycle stage: mitosis). The “solubility change mitosis (log2)” value in the data set with HeLa Kyoto [3] amounted to 0.00906. Also, in the data set with HeLa Kyoto [4], the “solubility in G1/S (log2)” value amounted to 0.0594.
